Data: patent publication US20240368250A1 (Ablynx, published 2024)
Like-named read-outs stand apart in the source and are kept apart here.

What was measured:
[1] = target: T1, Human FcRn (biotinylated human FcRn) (human, UniProt P61769 21-119); assay: SPR Biacore 8K+, biotinylated hFcRn on SA chip (~500-600 RU), pH 6.0, bivalent analyte fit;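 also: analytes were Fc proteins binding to biotinylated human FcRn captured on a Series S streptavidin sensor chip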
T1 construct: Biotinylated human FcRn captured on a Series S Sensor Chip SA; also called human neonatal Fc receptor; hFcRn

[2] = target: T2, Human serum albumin (HSA; Sigma-Aldrich Cat No. A8763) (human, UniProt P02768 25-609); assay: SPR Biacore 8K+, HSA on C1 chip, pH 7.4, off-rate column
[3] = target: T3, Mouse serum albumin (MSA; Albumin Bioscience Cat No. 2601) (mouse, UniProt P07724 25-608); assay: SPR Biacore 8K+, MSA on C1 chip, pH 7.4, off-rate column
[4] = target: T1, Human FcRn (biotinylated human FcRn); assay: SPR Biacore 8K+, biotinylated hFcRn on SA chip (~500-600 RU), pH 6.0, bivalent analyte fit (kd1)
[5] = target: T1, Human FcRn (biotinylated human FcRn); assay: SPR Biacore 8K+, biotinylated hFcRn on SA chip (~500-600 RU), pH 6.0, bivalent analyte fit (KD1)
[6] = target: T1, Human FcRn (biotinylated human FcRn); assay: SPR Biacore 8K+, biotinylated hFcRn on SA chip (~500-600 RU), pH 6.0, bivalent analyte fit (ka1)
[7] = target: T2, Human serum albumin (HSA; Sigma-Aldrich …); assay: SPR Biacore 8K+, HSA on C1 chip, pH 7.4, 1:1 fit
[8] = target: T3, Mouse serum albumin (MSA; Albumin …); assay: SPR Biacore 8K+, MSA on C1 chip, pH 7.4, 1:1 fit (off-rate only)
[9] = target: T1, Human FcRn (biotinylated human FcRn); assay: SPR Biacore 8K+, biotinylated hFcRn on SA chip (~700 RU), pH 6.0, bivalent analyte fit (ka1)
[10] = target: T1, Human FcRn (biotinylated human FcRn); assay: SPR Biacore 8K+, biotinylated hFcRn on SA chip (~700 RU), pH 6.0, bivalent analyte fit
[11] = target: T1, Human FcRn (biotinylated human FcRn); assay: SPR Biacore 8K+, biotinylated hFcRn on SA chip (~700 RU), pH 6.0, bivalent analyte fit (KD1)
[12] = target: T1, Human FcRn (biotinylated human FcRn); assay: SPR Biacore 8K+, biotinylated hFcRn on SA chip (~700 RU), pH 6.0, bivalent analyte fit (kd1)
[13] = target: T2, Human serum albumin (HSA; Sigma-Aldrich …); assay: SPR Biacore 8K+, HSA on C1 chip, pH 7.4, bivalent analyte fit (kd1)
[14] = target: T2, Human serum albumin (HSA; Sigma-Aldrich …); assay: SPR Biacore 8K+, HSA on C1 chip, pH 7.4, bivalent analyte fit (KD1)
[15] = target: T2, Human serum albumin (HSA; Sigma-Aldrich …); assay: SPR Biacore 8K+, HSA on C1 chip, pH 7.4, bivalent analyte fit (ka1)
[16] = target: T3, Mouse serum albumin (MSA; Albumin …); assay: SPR Biacore 8K+, MSA on C1 chip, pH 7.4, bivalent analyte fit (ka1)
[17] = target: T3, Mouse serum albumin (MSA; Albumin …); assay: SPR Biacore 8K+, MSA on C1 chip, pH 7.4, bivalent analyte fit (kd1)
[18] = target: T3, Mouse serum albumin (MSA; Albumin …); assay: SPR Biacore 8K+, MSA on C1 chip, pH 7.4, bivalent analyte fit (KD1)
[19] = target: T2, Human serum albumin (HSA; Sigma-Aldrich …); assay: SPR Biacore 8K+, HSA on C1 chip, pH 7.4, bivalent analyte fit (KD1); remark: listed apart in the source
[20] = target: T3, Mouse serum albumin (MSA; Albumin …); assay: SPR Biacore 8K+, MSA on C1 chip, pH 7.4, bivalent analyte fit (kd1); remark: listed apart in the source
[21] = target: T3, Mouse serum albumin (MSA; Albumin …); assay: SPR Biacore 8K+, MSA on C1 chip, pH 7.4, bivalent analyte fit (ka1); remark: listed apart in the source
[22] = target: T3, Mouse serum albumin (MSA; Albumin …); assay: SPR Biacore 8K+, MSA on C1 chip, pH 7.4, bivalent analyte fit (KD1); remark: listed apart in the source
[23] = target: T2, Human serum albumin (HSA; Sigma-Aldrich …); assay: SPR Biacore 8K+, HSA on C1 chip, pH 7.4, bivalent analyte fit (kd1); remark: listed apart in the source
[24] = target: T2, Human serum albumin (HSA; Sigma-Aldrich …); assay: SPR Biacore 8K+, HSA on C1 chip, pH 7.4, bivalent analyte fit (ka1); remark: listed apart in the source

Row | Binder | KD2 [1] [M] | ka2 [1] | kd2 [1] [s⁻¹] | koff [4] [s⁻¹] | Kd [5] [nM] | kon [6] [M⁻¹ s⁻¹] | kon [9] [M⁻¹ s⁻¹] | ka2 [10] | kd2 [10] [s⁻¹] | Kd [11] [nM] | koff [12] [s⁻¹] | other results
1 | TPP-66150 (Fc fusion) chain 1: DVQLVESGGGVVQAGGSLSISCAASGGSLSNYVLGWFRQAPGKEREFVAAINWRGDITIGPPNVEGRFTISRDNAKNTGYLQMNSLAPDDTALYYCGAGTPLNPGAYIYDWSYDYWGRGTLVTVSSDKTHTCPPCPAPEAAGGPSVFLFPPKPKDTLMISRTPEVTCVVVDVSQEDPEVQFNWYVDGVEVHNAKTKPREEQFNSTYRVVSVLTVLHQDWLNGKEYKCKVSNKGLPSSIEKTISKAKGQPREPQVYTLPPCQEEMTKNQVSLWCLVKGFYPSDIAVEWESNGQPENNYKTTPPVLDSDGSFFLYSKLTVDKSRWQEGNVFSCSVMHEALHNHYTQKSLSLSLG chain 2: DVQLVESGGGVVQAGGSLSISCAASGGSLSNYVLGWFRQAPGKEREFVAAINWRGDITIGPPNVEGRFTISRDNAKNTGYLQMNSLAPDDTALYYCGAGTPLNPGAYIYDWSYDYWGRGTLVTVSSDKTHTCPPCPAPEAAGGPSVFLFPPKPKDTLMISRTPEVTCVVVDVSQEDPEVQFNWYVDGVEVHNAKTKPREEQFNSTYRVVSVLTVLHQDWLNGKEYKCKVSNKGLPSSIEKTISKAKGQPREPQVCTLPPSQEEMTKNQVSLSCAVKGFYPSDIAVEWESNGQPENNYKTTPPVLDSDGSFFLVSKLTVDKSRWQEGNVFSCSVMHEALHNRFTQKSLSLSLGGGGGSGGGGSGGGGSGGGGSGGGGSGGGGSGGGGSDLGKKLLEAARAGQDDEVRELLKAGADVNAKDYFSHTPLHLAARNGHLKIVEVLLKAGADVNAKDFAGKTPLHLAANEGHLEIVEVLLKAGADVNAQDIFGKTPADIAADAGHEDIAEVLQKAA | 6.37 | 3.02e-05 1/RUs | 0.000192 | 0.0859 | 1160 | 73900 |  |  |  |  |  | binding result [2]: binds; binding result [3]: binds
2 | T-0263-00_TP121 (antibody, human IgG1, kappa, Full-length IgG1 knob-in-hole with one C-terminal ALB23002-A (9GS) on chain 1) heavy 1: not shown heavy 2: EVQLVESGGGLVQPGGSLRLSCAASGFNIRDTYIHWVRQAPGKGLEWVARIYPTQGYTRYADSVKGRFTISADTSKNTAYLQMNSLRAEDTAVYYCSRWGGEGFYAMDYWGQGTLVTVSSASTKGPSVFPLAPSSKSTSGGTAALGCLVKDYFPEPVTVSWNSGALTSGVHTFPAVLQSSGLYSLSSVVTVPSSSLGTQTYICNVNHKPSNTKVDKKVEPKSCDKTHTCPPCPAPELLGGPSVFLFPPKPKDTLMISRTPEVTCVVVDVSHEDPEVKFNWYVDGVEVHNAKTKPREEQYNSTYRVVSVLTVLHQDWLNGKEYKCKVSNKALPAPIEKTISKAKGQPREPQVCTLPPSRDELTKNQVSLSCAVKGFYPSDIAVEWESNGQPENNYKTTPPVLDSDGSFFLVSKLTVDKSRWQQGNVFSCSVMHEALHNRFTQKSLSLSPG light: not shown |  |  |  |  |  |  | 71000 | 1.8e-05 1/RUs | 0.00036 | 2300 | 0.16 | Kd [7]: 76.4 nM; koff [7]: 0.00204 s⁻¹; kon [7]: 26700 M⁻¹ s⁻¹; koff [8]: 0.0385 s⁻¹
3 | T-0263-00_TP123 (antibody, human IgG1, kappa, Full-length IgG1 knob-in-hole with two C-terminal ALB23002-A (9GS), one on each heavy chain) heavy 1: not shown heavy 2: EVQLVESGGGLVQPGGSLRLSCAASGFNIRDTYIHWVRQAPGKGLEWVARIYPTQGYTRYADSVKGRFTISADTSKNTAYLQMNSLRAEDTAVYYCSRWGGEGFYAMDYWGQGTLVTVSSASTKGPSVFPLAPSSKSTSGGTAALGCLVKDYFPEPVTVSWNSGALTSGVHTFPAVLQSSGLYSLSSVVTVPSSSLGTQTYICNVNHKPSNTKVDKKVEPKSCDKTHTCPPCPAPELLGGPSVFLFPPKPKDTLMISRTPEVTCVVVDVSHEDPEVKFNWYVDGVEVHNAKTKPREEQYNSTYRVVSVLTVLHQDWLNGKEYKCKVSNKALPAPIEKTISKAKGQPREPQVCTLPPSRDELTKNQVSLSCAVKGFYPSDIAVEWESNGQPENNYKTTPPVLDSDGSFFLVSKLTVDKSRWQQGNVFSCSVMHEALHNRFTQKSLSLSPGGGGGSGGGSEVQLVESGGGVVQPGGSLRLSCAASGFTFRSFGMSWVRQAPGKGPEWVSSISGSGSDTLYADSVKGRFTISRDNSKNTLYLQMNSLRPEDTALYYCTIGGSLSRSSQGTLVTVSSA light: not shown |  |  |  |  |  |  | 63000 | 1.7e-05 1/RUs | 0.00059 | 2400 | 0.15 | koff [13]: 0.00253 s⁻¹; Kd [14]: 67.4 nM; kon [15]: 37500 M⁻¹ s⁻¹; kon [16]: 61400 M⁻¹ s⁻¹; koff [17]: 0.0344 s⁻¹; Kd [18]: 560 nM
4 | TPP-66177 (Fc fusion, Symmetrical IgG4 FALA Fc fusion without knob-in-hole mutations, two C-terminal ALB23002 via 35GS; also called symmetrical ALB23002 ISVD-Fc polypeptide) DVQLVESGGGVVQAGGSLSISCAASGGSLSNYVLGWFRQAPGKEREFVAAINWRGDITIGPPNVEGRFTISRDNAKNTGYLQMNSLAPDDTALYYCGAGTPLNPGAYIYDWSYDYWGRGTLVTVSSDKTHTCPSCPAPEAAGGPSVFLFPPKPKDTLMISRTPEVTCVVVDVSQEDPEVQFNWYVDGVEVHNAKTKPREEQFNSTYRVVSVLTVLHQDWLNGKEYKCKVSNKGLPSSIEKTISKAKGQPREPQVYTLPPSQEEMTKNQVSLTCLVKGFYPSDIAVEWESNGQPENNYKTTPPVLDSDGSFFLYSKLTVDKSRWQEGNVFSCSVMHEALHNHYTQKSLSLSLGGGGGSGGGGSGGGGSGGGGSGGGGSGGGGSGGGGSEVQLVESGGGVVQPGGSLRLSCAASGFTFRSFGMSWVRQAPGKGPEWVSSISGSGSDTLYADSVKGRFTISRDNSKNTLYLQMNSLRPEDTALYYCTIGGSLSRSSQGTLVTVSSA | 3.64 | 4.07e-05 1/RUs | 0.000148 | 0.0872 | 1690 | 51500 |  |  |  |  |  | Kd [19]: 14.3 nM; koff [20]: 0.000404 s⁻¹; kon [21]: 45900 M⁻¹ s⁻¹; Kd [22]: 8.8 nM; koff [23]: 0.000776 s⁻¹; kon [24]: 54300 M⁻¹ s⁻¹
